Test results taken from US20030125257A1 (published 2003).
Square brackets hold non-standard residues; d marks the D form. Ends that are not written are not given here. Sta = CC(C)C[C@H](N)[C@@H](O)CC(=O)O

Target: purified full-length human BACE with six C-terminal His residues, expressed in Sf9 insect cells (human, UniProt P56817 46-501)
Experiment: radioligand equilibrium binding (Scatchard plot); no inhibitor

Sequence of purified full-length human BACE with six C-terminal His residues, expressed in Sf9 insect cells (P56817 other isoform, or with tags, fused parts or gaps): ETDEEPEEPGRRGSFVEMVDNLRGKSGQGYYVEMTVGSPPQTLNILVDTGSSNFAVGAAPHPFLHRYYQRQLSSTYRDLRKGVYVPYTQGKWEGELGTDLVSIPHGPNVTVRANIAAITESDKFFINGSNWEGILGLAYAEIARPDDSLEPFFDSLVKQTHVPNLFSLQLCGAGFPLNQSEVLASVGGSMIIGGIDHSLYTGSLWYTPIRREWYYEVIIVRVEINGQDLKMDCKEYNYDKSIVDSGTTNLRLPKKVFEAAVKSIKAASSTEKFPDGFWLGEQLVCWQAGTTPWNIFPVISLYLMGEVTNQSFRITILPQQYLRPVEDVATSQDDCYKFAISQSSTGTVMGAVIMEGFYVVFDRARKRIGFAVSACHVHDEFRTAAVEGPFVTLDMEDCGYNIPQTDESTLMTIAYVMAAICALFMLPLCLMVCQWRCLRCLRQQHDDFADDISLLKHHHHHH

- Kd: 25 nM
Binder: EVN[Sta]VAE[Tyr(3H2)]-NH2 [tritiated Compound A (Glu-Val-Asn-Statine-Val-Ala-Glu-Tyr-NH2, iodine of Tyr(I2) exchanged for 3H)]
